Experiment [1] has as its target I-Bth0305I full-length enzyme containing a catalytically inactivating D222N mutation (Bacillus thuringiensis 0305ϕ8–36 bacteriophage). The experiment in a line: SEC. (SEC sorts molecules by how far they enter the pores of the column.)
Experiment [2] concerns the target I-Bth0305I isolated catalytic domain containing a D196A mutation (Bacillus thuringiensis 0305ϕ8–36 bacteriophage). The experiment in a line: SEC.

Our source for the stoichiometry N values is publication PMC3239194.

The stoichiometry N is the number of molecules, sites or subunits per partner or assembly. Take “I-Bth0305I full-length enzyme containing a catalytically inactivating D222N mutation”: the stoichiometry N in experiment [1] came to 2.

In experiment [2], “I-Bth0305I isolated catalytic domain containing a D196A mutation (domain or fragment)” gave a stoichiometry N of 2.
